Laboratory results taken from US20240033291A1.

Legend:
[1] = target: mesothelin on the cell membrane of the pancreatic cancer cell line AsPC-1 (mesothelin-overexpressing cell line) (human) (UniProt Q13421); assay: flow cytometry, phage on AsPC-1 cells against K562 control cells, anti-M13-FITC
[2] = target: mesothelin on the cell membrane of the pancreatic cancer cell line AsPC-1 (mesothelin-overexpressing cell line) (human) (UniProt Q13421); assay: flow cytometry, phage on AsPC-1 cells, anti-M13-FITC

B1: MSLN3 phage clone (scFv displayed on phage, KBIO human synthetic scFv phage display library KscFv-I) (scFv, V domains shown, not shown: small tags and cut ends; large carriers)
VH: EVQLVESGGGLVQPGGSLRLSCAASGFTFSDYAMSWVRQAPGKGLEWVSAISSSGGTTYYADSVKGRFTISRDNSKNTLYLQMNSLRAEDTAVYYCAKEEEGEWREYFDVWGQGTLVTVSS
VL: DIQMTQSPSSLSASVGDRVTITCRASQSISSYLNWYQQKPGKAPKLLIYATSTLQSGVPSRFSGSGSGTDFTLTISSLQPEDFATYYCQQSYTFPYTFGQGTKVEIK
Q: Which results are given for B1?
A: relative peak shift value [1]: 23.8%; relative peak shift value [2]: > 3%
